Results published in the DeepSol protein solubility set.

Test: soluble on expression in E. coli; label from the status in PepcDB or PDB records

| Sequence | soluble on expression in E. coli |
| --- | --- |
| MSLNDILNEFIDKYFPLSNEPLLPDFKDLNYPENLPTLVIDLNYVIAKLEYDRKTGWRVLKRPYADRFFKELSSFYEIVIWSDDNFPVAQEVISKWGIPAIGCLHRDQCSKKKKSYVKDLKRLGRNLDRVVIIDHDAKAFMLQPENGILIKEFHGDLNDKEMLCLIDLLKSFAISTHDISQFLKKHGGGDYNIGKRYLQQKEGHHHHHH | soluble |
| MKSALSLLGERQQSLLTALLHHRKGLTVEELSSLLTISRNAVNQHLTHLGSSGFIQSALQESTGGRPGRVYTLTPNGLELFQRRYSFLAKLLLSWIDKNMGEHELDVCLTELGKEMASGLEHRLTQHTSRSDKLQEAITIMSELGYDTEIYRISENQAEIVANNCVFQELAQQHQEFCKLDISFLKHLLKADIEHTECIVRNGKYCRFRITSPDESGS | not soluble |
| MGSDKIHHHHHHMYLIRKKYITSLENILKKEGVIVDALSNDATIRYRSEEIGDEFTSVYNIQKLLNIAYASQGKESFGLLSYEYFHPGDYDIVNYIMMSSDNLLHALECLCRFSRLLYSGCQLTLDKKNTNTYCIGFTYLYPQDKNKEITRQFHELTVASLLAYCQWLTAANFTHFSSMEFSYPQPYGIRKYETLFACPMTFGTHRNCVYLNAEILLMPLVTSNASLFKLHEKHATCLIDILFNKTIKSRVRDSINKKLETGSCNIHSVASDLFMTPRTLQRRLEEEGAYFKDILEDVKMNLAEYYLIYSQYSLSQVAELVGYKDLSSFHRACLRWFRSSPGFFRERGCKKACLPMK | not soluble |
| MRTVEVVGRGPAVDALAAFLADIDVSVAQPSTPADSSGDLAIVVDTVGSERFAAWNDRAKDDAIPWVAVELGGVGGVPVTDAAISGFGPETGCFDCLRTRVEATVDDTEEVTGAPAAATQRFAGALAGRLVTQFLDGDAALLGTVTELPHTQRRFLPVPGCDCGGTQGHSLGDGRQTAPDSEALSRAELGLDDRVGIATEVGEVESFPAPYYLSTLADTAGFSDVSAAAKAAGVAIDWDTAFMKALGENYERYAAGVYREGNLQHGTVADVPAAVTPDTFVRDEAEWDESHALPWVPAENLLTDEQRSLPAETVHYPPPSNAVRPATTTGLGLGNTVTEALLTGLYEVIERDAAMLSWYSTFDPLRVAIDEHEQYETLRRRATSEGLDVTALLLTQDVDVPVITVALAQDEWPRFALGTDADLNPGAAAVGALEEALQNWMELDSMGPEAAMDAQGAIGRYAKSPGEAADLTASETAVPLDSLGPDVDLSGEAELETLCDRAADAGLAPYGTRLTTRDLEQLGFEAVRVVCPSAQPLFFGESFFGERAETVPADLGFEPRLDRDHHPFP | soluble |
| MKEVLRVRTTKHTSIVNITQQVDQVVKKSGVREGICVVYTPHTTACVFVNEGADPDVVRDIVYSLEKLIPWNDPSYAHMEGNSAAHIRSAIIGNSRVIPIIDGELALGTWESIFLADFDGPRERKVIVVVLGEKLEHHHHHH | not soluble |
| MDINGGGATLPQALYQTSGVLTAGFAQYIGVGSGNGKAAFLNNDYTKFQAGVTNKNVHWAGSDSKLSATELSTYASAKQPTWGKLIQVPSVGTSVAIPFNKSGSAAVNLSVQELCGVFSGRINTWDGISGSGRTGPIVVVYRSESSGTTELFTRFLNAKCNAETGNFAVTTTFGTSFSGGLPAGAVAATGSQGVMTALAAGDGRITYMSPDFAAPTLAGLDDATKVARVGKNVATNTQGVSPAAANVSAAIGAVPVPAAADRSNPDAWVPVFGPDNTAGVQPYPTSGYPILGFTNLIFSQCYADATQTTQVRDFFTKHYGASNNNDAAITANAFVPLPTAWKATVRASFLTASNALSIGNTNVCNGIGRPLLEAAHHHHHH | soluble |
| MGSDKIHHHHHHMKIDDMDAFVAVIRCQSTNLAAEALQLTQPAITRRVQNFEEDLGATLLDRNTKPLKPTPMGLRVYEQCKAILREIDSLRELVANDGAPSGTLRLGVPQTLGDVVLLDALAQIREAYPQLRTQVTSGWGSSLIARMENGELDAAAALFPPGKIFPEGIASQSIARMPLRVVTAKGSAGKRSYKLKDCYTRGWVLNPDGCGFRAGLQRALSEQGLSLSINLETFGTELQLGLVANGQGLGLVPEPLLQTSRHRSALDVLNISDFKPQVDLWLFHPRYLGNLQEPVELFGEVAGHRLLG | not soluble |
| MGHHHHHHGGHMSLSPVLTQHVSQPITLDEQTQKMKRHLLQDIRRSAYVYRVDCGGCNACEIEIFAAITPVFDAERFGIKVVSSPRHADILLFTGAVTRAMRMPALRAYESAPDHKICVSYGACGVGGGIFHDLYSVWGGSDTIVPIDVWIPGCPPTPAATIHGFAVALGLLQQKIHAVDYRDPTGVTMQPLWPQIPPSQRIAIEREARRLAGYRQGREICDRLLRHLSDDPTGNRVNTWLRDADDPRLNSIVQQLFRVLRGLHDEGGS | soluble |
| MDDDFLPRRLKYSKHSLMLVALDYIPKELHKCLDMDRLEDVSAGGAYTTKQMLEEILNSDSRFRIYGNAEVFEKLLEKYMNFTSCREKFGFEKLQVLCVPIPMSPNLKGEKYLTKQDMFEHVQFYLMDVFHHTGFPFDNVVISLAFIKFRADRLNGCMEFVSNAREVLNSIESEIDQFLDELLDILNAEYFPKNYALPSKNPSFDTLYKQWKSFFPDWKPDELDSIQRFLEDRYSHLPPHKNAEKYGGILFVNHYLTNKYRELIDSRPEVFLPYNAMNRHKAPITVRVILFKDTKLVLRGELYKAMNQAYPDRVPIDYTDDLEEGIIYAMNFEDVFKEFGDLWYDIEFILTKVTRTNNATPILTLSGEFCIPGLQAFYNIFHVMNNVLRLFQKVKKEMWHFVCGYVKILEVRLKPFEDTPCFITNTALETIIQELCEYWRMFENAPFKDIRTVKGATFTADDLKNELSHIGVLDIFPELGELVDTGYQAILEVKQNADNLKTWDLMDYLESTLIFCFSSRFEFLNNLLEIQEGIHPKNENLANIFLGITSKPENLLPYLIDKSRYQDVLPTVPLERHRVRVTYNFSIDDETISEPTPVPQQLEKKTENCSECNDVRMEMNTVKDVLQNVQKQLKNMQQNSEQFETKLVASDNKTKNFEKQLEDERRKNNKHLESSRKTLISKNEQLEALKRRATALSNCQAENQTLKFKIAEHHLLEKQLNISNKDVTQARDQLSGQISELEIQLKSELKTVQHLKKEQTISCNLTNEITKLKDQIEREKLCSKQLEKEISQLRTEADEMNIVMTQSLEMENLQLRDATKKFETENASLLKTNQQLSIQNEEQKRLIQVLLEKQQTAPSSSDFPVPSTQMTDNEENSRQQLWKYQKIKDSFRDGIKLRKAEAMVKKLTSLNRDPGVHQMAHRELENFKKLTSHYLQAIEMNILKIKNNGSSDLEQLPEAPKFSDEFMRFYRNATGKQTLTSASFSSGNSRGTQSYGSSISTMPSTSSRGNVQHHSGSAVRGQSITPTGLSQVPMSPRKLFSQPNIVTASITSTELDDTECAICLDEMTNFKETIKCQCRRRFHLECATKWLNEKRECPTCRKLLLNPSDYPPLN | not soluble |
| MADSIASIGNRYIDNNDTDMHFLRTWAVRRCQHTDWDICERIRLGELKEARDRAAQMEKTMRWWSSCTADWRNRWSAVRDERNRAREEAETLRLNYDLLLEEKRFLAEQLYHVDSESDEPKLEISQKPEIDGTKRNAVVQTIHSISCDPPSILVKSYSAAQIEAVLREPSVDEPPVETTKSDINEELKAENEFLKDQANELNKCREKIETDGKTIQDLRLRIQSMERELMAAKNSKRASSS | not soluble |
| MFPEILNNEKLRLENIKKIYESSKSGYESAKQLYEQQVNNPEVSDEQKSENLEKLKESRGDLDNLQKKIVELQAKIENLSKLGGQQGNPFKKLF | not soluble |
| MLAFFRRFMSTTTVTAQPVLPWFRNVPLAPADPILGVTEAFKKDTNPNKINLGVGAYRDDQGKPFVLRAVREAEQQIIDAKMDKEYSTITGVPEFAPLAAKLAFGDNSEVIRDGRVFTTQSISGTGALRIGGQFVEKFIPSKTLFYPTPTWANHLPVFRNSGLSIQPYRYYNQETLGFDVEGALEDISKMPEGSVILLHACAHNPTGVDPTKEQWKKLSQVLKERKILPFFDMAYQGFASGDVDDDAFALRHFIEQGHNVLVAQSFAKNMGLYGERVGAFSIVCDSAEEAIRVGSQMRIIIRPMISMPPLHGARIASRILSNPELKKSWLEDVKLMADRIKSMRTALKDGLKAEGSTLNWDHITNQIGMFCFTGINEKQVQKLIKEHSVYLTNDGRISISGINTGNVAYLAKALHDVTK | not soluble |
| MNPLLTDSRRQALRSASHWYAVLSGERVSPQQEARWQQWYEQDQDNQWAWQQVENLRNQLGGVPGDVASRALHDTRLTRRHVMKGLLLLLGAGGGWQLWQSETGEGLRADYRTAKGTVSRQQLEDGSLLTLNTQSAADVRFDAHQRTVRLWYGEIAITTAKDALQRPFRVLTRQGQLTALGTEFTVRQQDNFTQLDVQQHAVEVLLASAPAQKRIVNAGESLQFSASEFGAVKPLDDESTSWTKDILSFSDKPLGEVIATLTRYRNGVLRCDPAVAGLRLSGTFPLKNTDAILNVIAQTLPVKIQSITRYWINISPL | soluble |
| MMWIPYNQGFHAGPKCLTVVFIYLLNMKVLRHIYRFLMELYGPQGWWPLLDRDTMTLRYHPGDYTPPSDDGDVFEVITGSILTQNTSWDSAASALRNLAAMDALKPHRILSLDDAELEAAIRCAGFYRQKVSYLREMAGFFISLEGSTPSRKELLKVRGVGPETADSVLLYAYRKPEFVVDAYTRRILTHLGLIAGDESYHRIKELFERSLEPDFRVFQEYHALIVRHGKSYYRGRVHGDGDPLTEKLEHHHHHH | not soluble |
| MEQLTLQVEGMSCGHCVNAIESSVKELNGVEQVKVQLAEGTVEVTIDSSVVTLKDIVAVIEDQGYDVQ | not soluble |
| MLLAGLTSCQQKGYTITGTVDSTLNLDGNMVYIQLSQGNNLDSTTIRNGAFTFTGEHIDTAKLAYIVTASPEHNVVPIIFILEDGKISAKIGEYAAKGTPLNEENFKYSAKINELENSFKLKMEEIQADTARAAEETQAMLEKEYTAMLGEKSKITTELYQSHTNDALGARLLQNILYGEGSDSDVIAEARKKAGPIVLAHPNIVHLLAMIDNLADTQPGKMAKNFAGTDAEGNEVELFKYVGQGNYAVVDFWASWCGPCRREIPYIAEANAKFAEKGLQVVGIVVWDKMEDHLKAKEALNVVWPQIFDAKNVATDMYGIQGIPQVILFGPDGTIIERDLRGEKLIEKLSEIYNSNKK | not soluble |
| MAMEKPVLWYIADPMCSWCWGFAPVIENIRQEYSAFLTVKIMPGGLRPGTNTPLLPEKRAQILHHWHSVHITTGQPFTFENALPEGFIYDTEPACRGVVSVSLIEPEKVFPFFAAIQRAFYVGQEDVAQLAILKKLAVDLGIPESRFTPVFQSDEAKQRTLAGFQRVAQWGISGFPALVVESGTDRYLITTGYRPIEALRQLLDTWLQQHGV | soluble |
| MPSIDIDEDTSVETTTMTETPTLDLNAKVEIINFINTFDVKGNCYLYHEGEEKLVSTLLRPDDRKRISLMKELEEARTIRQLHKTRLFKDHPFLKKQKRIILLPYSSISKSHMQTSHYSEREINRTKIINTFWKSKLELHYDAAEASILVCSFLAQNIDRNTHGLGISQSKIAIVLGMSLRRVSDTLNRLEQLGYVRRYTEKAKRGKLSLGTFIQVTENFSSQFLPPKKIVGESEEKQKQGSEHQPQDPPEKHYFQFLQSLNDLRLELKNFIVNSEEPIPPVVLQQIFKVL | not soluble |
| GMCINRQILNAVTASNRKKNTPLNTYVSFDEPVNPEDDSQVKLVDVLKSDKEQNPERLFIDQENAESLEDKLYSVLSGFEKNVLELYMSGKDYIAIAQTLDKPPKSIDNAIQRIRNKVDKITNL | not soluble |
| MTDLTGILYIVATPIGNLQDITQRALETFAQVDLIAAEDTRHSGLLLSHYGIKKPFFALHDHNEQEKAHILVEKLKQGSNIALISDAGTPLISDPGFHLVRQCREAGIRVVPLPGACAAITALCASGIASDRFCFEGFLPAKSKARKDKLENIAEEDRTLIFYESTHRILDTLEDMQAVLGEERYIVLAREMTKTWETITGNTIKNLREWLLEDPNRTKGEMVLIVEGKPKSDNNDEISPQAVKALELIAEELPLKKAAAIVAELYGYKKNALYQFGLAHLEKLEHHHHHH | soluble |
